Experimental data taken from patent US20190231821A1 (published 2019).

Target: T1, human endogenous retrovirus-E (HERV-E); CT-RCC-1 peptide peptide on HLA-A11 (human)
T1 peptide: ATWLGSKTWK
Experiment: multimer staining

B1: HLA-A11 restricted HERV-E TCR (TCR, V domains shown)
Valpha: GIQVEQSPPDLILQEGANSTLRCNFSDSVNNLQWFHQNPWGQLINLFYIPSGTKQNGRLSATTVATERYSLLYISSSQTTDSGVYFCAVRGGADGLTFGKGTHLIIQP
Vbeta: DTEVTQTPKHLVMGMTNKKSLKCEQHMGHRAMYWYKQKAKKPPELMFVYSYEKLSINESVPSRFSPECPNSSLLNLHLHALQPEDSALYLCASSPPNEKLFFGSGTQLSVL
binding result: recognises
